Assay results taken from patent US20240076391A1 (ONCURIOUS, published 2024).
Each block holds one binder with its values, some of them ahead of it.

Legend:
human CCR8 [1] = target: T1, human CCR8 (human, UniProt P51685 1-355); experiment: flow cytometry, human CCR8 stably expressed in HEK293 cells
T1 construct: also called hCCR8

[2] = target: T2, N-terminal deletion human CCR8 (delta 18-3XHA) (human, UniProt P51685 20-355); experiment: flow cytometry; an extracellular loop binder is defined in paragraph 224 as binding on hCCR8 cells and on human CCR8 (delta18-3XHA)
T2 construct: N-terminally deleted construct with 3XHA, expressed on transfected HEK293 cells
Description: VHH clones resulting from the human CCR8 immunization and selection campaign were screened by means of flow cytometry for binding to human CCR8 (SEQ ID NO: 79) on stably transfected HEK293 cells or to HEK293 cells previously transfected with plasmid DNA encoding three different versions of human-mouse chimera CCR8 in which one of the extracellular loops (ECLs) was replaced with the mouse CCR8 counterpart, as well as to an N-terminal deletion human CCR8 (SEQ ID NO: 80, delta 18-3XHA herein after), in comparison to mock-transfected control cells. Comparison of the binding (median fluorescent intensity) signal of a given VHH clone across the seven cell lines enabled classification of said clone as an N-terminal human CCR8 binder (i.e. binding on hCCR8 cells, but not on human CCR8 (delta18-3XHA) or control cells) or as an extracellular loop hCCR8 binder (i.e. binding on hCCR8 cells and on human CCR8 (delta18-3XHA), but not on control cells). Binding comparison across the cell lines expressing human-mouse chimera CCR8 allowed to further classify extracellular hCCR8 binders as either ECL1, ECL2 or ECL3 binders.

human CCR8 [3] = target: T1, human CCR8; experiment: flow cytometry competition with FLAG3-His6 tagged parental VHH-65 on hCCR8 cells
Description: (§1) Multiple His6 tagged VHH variants were thus generated and evaluated by flow cytometry f for their ability to compete for binding to hCCR8 with their FLAG3-His6 tagged parental counterparts. […] Variants that retained binding capacity where selected for further biophysical and chemical stability analysis.

human CCR8 [4] = target: T1, human CCR8; experiment: flow cytometry competition with FLAG3-His6 tagged parental VHH-56 on hCCR8 cells
Description: as §1

human CCR8 [5] = target: T1, human CCR8; experiment: competition with VHH-65 for CCR8 binding
human CCR8 [6] = target: T1, human CCR8; experiment: flow cytometry competition with FLAG3-His6 tagged parental VHH-74 on hCCR8 cells
Description: as §1

T1 sequence (P51685 whole entry): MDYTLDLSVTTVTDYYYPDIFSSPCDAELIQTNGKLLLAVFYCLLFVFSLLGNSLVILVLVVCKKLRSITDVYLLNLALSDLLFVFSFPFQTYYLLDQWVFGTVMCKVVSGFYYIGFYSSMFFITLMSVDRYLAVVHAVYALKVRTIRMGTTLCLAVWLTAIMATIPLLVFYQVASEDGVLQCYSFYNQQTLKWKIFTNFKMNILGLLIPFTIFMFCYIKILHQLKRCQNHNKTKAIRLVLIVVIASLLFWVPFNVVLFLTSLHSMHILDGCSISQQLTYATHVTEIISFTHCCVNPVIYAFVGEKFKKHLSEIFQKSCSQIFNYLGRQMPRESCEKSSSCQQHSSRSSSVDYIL
T2 sequence (P51685 other isoform, or with tags, fused parts or gaps mutant): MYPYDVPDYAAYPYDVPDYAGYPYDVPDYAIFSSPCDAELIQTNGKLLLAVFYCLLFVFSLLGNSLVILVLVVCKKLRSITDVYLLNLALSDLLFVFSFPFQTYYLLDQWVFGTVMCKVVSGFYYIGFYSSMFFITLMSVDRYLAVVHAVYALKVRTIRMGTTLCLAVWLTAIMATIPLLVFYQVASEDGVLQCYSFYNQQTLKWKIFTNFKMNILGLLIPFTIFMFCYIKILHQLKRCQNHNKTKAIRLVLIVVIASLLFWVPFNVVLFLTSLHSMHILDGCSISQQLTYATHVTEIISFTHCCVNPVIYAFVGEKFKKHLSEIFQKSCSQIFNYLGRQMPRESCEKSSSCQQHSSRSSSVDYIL

binding result (human CCR8 [1]): binds
binding result [2]: binds
B1: VHH-65 (VHH)
VHH: EVQLVESGGGLVQPGGSLRLSCAASGRAFSSYNMGWFRQAPGKERDFVATISSSGTNYANSVKGRFTISRDNAKNTVYLQMNSLRPEDTAVYYCNAKTVTRTGGVITGSRIEYDYWGQGTLVTVSS
notes: Monovalent VHH purified from E. coli periplasm by IMAC; not shown: C-terminal FLAG3 and His6 tags

binding result (human CCR8 [3]): binds
B2: VHH-89 (VHH)
VHH: DVQLVESGGGLVQPGGSLRLSCAASGRAFSSYNMGWFRQAPGKEREFVATISSSGTNYADSVKGRFTISRDNAKNTVYLQMNSLRPEDTAVYYCNAKTVTRTGGVITGSRIEYDYWGQGTLVTVSS
notes: also called VHH-65 E1D, D46E, N60D; not shown: C-terminal His6 tag (no FLAG3)

binding result (human CCR8 [4]): binds
B3: VHH-114 (VHH)
VHH: DVQLVESGGGLVQPGGSLRLSCAASRSIYNVLAMGWYRQAPGKERELVAVVWSSGNTNYADSVKGRFTISRDNAKNTVYLQMNSLRPEDTAVYYCYSKSLIGTSRYEIWGQGTLVTVSS
notes: 'V691' is printed, probably V69I; also called VHH-56 E1D, M32L, V691; not shown: C-terminal His6 tag (no FLAG3)

binding result (human CCR8 [1]): binds
binding result [2]: binds
B4: VHH-56 (VHH)
VHH: EVQLVESGGGLVQPGGSLRLSCAASRSIYNVMAMGWYRQAPGKERELVAVVWSSGNTNYADSVKGRFTVSRDNAKNTVYLQMNSLRPEDTAVYYCYSKSLIGTSRYEIWGQGTLVTVSS
notes: Monovalent VHH purified from E. coli periplasm by IMAC; PelB signal peptide is removed on export; not shown: C-terminal FLAG3 and His6 tags

binding result (human CCR8 [4]): binds
B5: VHH-115 (VHH)
VHH: DVQLVESGGGLVQPGGSLRLSCAASRSIYNVRAMGWYRQAPGKERELVAVVWSSGNTNYADSVKGRFTISRDNAKNTVYLQMNSLRPEDTAVYYCYSKSLIGTSRYEIWGQGTLVTVSS
notes: 'V691' is printed, probably V69I; also called VHH-56 E1D, M32R, V691; not shown: C-terminal His6 tag (no FLAG3)

binding result (human CCR8 [5]): binds
B6: VHH-74 (VHH)
VHH: EVQLVESGGGLVQPGGSLRLSCAASGSTFSIKSIGWYRQAPGKQRELVADITRGAGINYADSVKGRFTISRDNTKNTMYLQMNSLRPEDTAVYYCNVKTIKRTGGIMTGSKIEYDYWGQGTLVTVSS
notes: as for B1

binding result (human CCR8 [6]): binds
B7: VHH-125 (VHH)
VHH: DVQLVESGGGLVQPGGSLRLSCAASGSTFSIKSIGWYRQAPGKQRELVADITRGAGINYADSVKGRFTISRDNAKNTVYLQMNSLRPEDTAVYYCNVKTIKRTGGILTGSKIEYDYWGQGTLVTVSS
notes: also called VHH-74 E1D, T74A, M78V, M107L; not shown: C-terminal His6 tag (no FLAG3)
